Assay results published in article PMC2133107 (The Journal of Cell Biology, 1999).

B1: Rev-NES peptide 1 (peptide)
peptide: CLPPLERLTL
B2: HIV Rev protein (natural protein)
chain: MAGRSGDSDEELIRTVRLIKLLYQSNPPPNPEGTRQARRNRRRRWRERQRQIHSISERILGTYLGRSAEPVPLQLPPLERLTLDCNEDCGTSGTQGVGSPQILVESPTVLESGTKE
B3: Rev-NES peptide 2 (peptide)
peptide: CPVPLQLPPLERLTLD

Key:
[1] = target: Ran wild type, Ran-[γ-32P]GTP (UniProt P62826)
[2] = target: Human CRM1 (recombinant, untagged) (human, UniProt O14980 1-1071)
Chain of Human CRM1 (recombinant, untagged) (human, UniProt O14980 1-1071) (O14980 whole entry): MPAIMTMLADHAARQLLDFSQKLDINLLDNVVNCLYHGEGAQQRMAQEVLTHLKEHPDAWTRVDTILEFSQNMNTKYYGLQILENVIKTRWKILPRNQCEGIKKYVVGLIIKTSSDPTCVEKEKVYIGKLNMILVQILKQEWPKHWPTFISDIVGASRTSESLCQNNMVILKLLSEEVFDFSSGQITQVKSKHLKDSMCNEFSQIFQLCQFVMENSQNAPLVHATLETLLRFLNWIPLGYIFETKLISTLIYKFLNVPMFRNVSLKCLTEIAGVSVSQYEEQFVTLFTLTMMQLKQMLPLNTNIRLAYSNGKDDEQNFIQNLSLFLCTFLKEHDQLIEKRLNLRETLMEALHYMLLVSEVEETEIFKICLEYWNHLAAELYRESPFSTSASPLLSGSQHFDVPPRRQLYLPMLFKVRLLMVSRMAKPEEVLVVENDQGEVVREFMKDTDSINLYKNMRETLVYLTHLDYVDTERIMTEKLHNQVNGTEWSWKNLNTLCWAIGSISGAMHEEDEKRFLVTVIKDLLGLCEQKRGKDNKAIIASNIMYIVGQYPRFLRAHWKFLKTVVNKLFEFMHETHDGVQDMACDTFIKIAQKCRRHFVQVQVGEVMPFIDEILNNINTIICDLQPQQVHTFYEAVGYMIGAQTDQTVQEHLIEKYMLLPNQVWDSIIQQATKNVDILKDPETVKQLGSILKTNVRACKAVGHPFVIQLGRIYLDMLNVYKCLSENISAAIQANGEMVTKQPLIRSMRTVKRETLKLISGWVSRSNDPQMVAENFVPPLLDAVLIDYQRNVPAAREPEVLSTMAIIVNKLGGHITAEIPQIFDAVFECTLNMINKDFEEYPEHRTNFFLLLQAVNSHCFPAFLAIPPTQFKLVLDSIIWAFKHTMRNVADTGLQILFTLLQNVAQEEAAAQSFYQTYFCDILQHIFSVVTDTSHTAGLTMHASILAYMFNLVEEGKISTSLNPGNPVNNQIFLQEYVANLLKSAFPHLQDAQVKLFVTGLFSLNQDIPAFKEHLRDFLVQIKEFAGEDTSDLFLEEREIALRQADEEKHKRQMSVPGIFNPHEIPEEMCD

| Molecule | Kd [1] [µM] | Kd [2] [µM] |
| --- | --- | --- |
| Human CRM1 (recombinant, untagged) (from UniProt O14980 1-1071) (natural protein; other documents disagree on this pair) | > 1 |  |
| B1 |  | ~50 |
| B2 |  | ~0.5 |
| B3 |  | ~7 |
